Laboratory results: article PMC12303382

Target: Clostridioides difficile transferase B component, CDTb_(45-876), activated with trypsin (Clostridioides difficile) (UniProt O32739)
Experiment: SDS-PAGE of SDS-resistant oligomers

Work on “Clostridioides difficile transferase B component, CDTb_(45-876), activated with trypsin (from UniProt O32739 45-876) (natural protein)” yielded a fold enhancement of oligomerization with 2.5 M ethanol over water of 7.5 fold.
